Test results published in PMC7202667, “UNBRANCHED3 Expression and Inflorescence Development is Mediated by UNBRANCHED2 and the Distal Enhancer, KRN4, in Maize”.

T1: UB2 (UNBRANCHED2), GST fusion (Zea mays, UniProt A0A804LTB0 =M+82-402, internal_change)
T1 sequence: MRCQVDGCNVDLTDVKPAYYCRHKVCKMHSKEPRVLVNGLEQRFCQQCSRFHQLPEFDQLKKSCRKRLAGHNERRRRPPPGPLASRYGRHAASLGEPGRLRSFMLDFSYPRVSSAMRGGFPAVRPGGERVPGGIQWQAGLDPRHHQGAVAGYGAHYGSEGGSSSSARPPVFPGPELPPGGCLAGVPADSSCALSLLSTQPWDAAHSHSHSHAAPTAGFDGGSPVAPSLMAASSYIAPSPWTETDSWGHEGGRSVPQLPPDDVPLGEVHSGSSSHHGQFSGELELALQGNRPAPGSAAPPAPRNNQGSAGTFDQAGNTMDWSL

B1: pUB3-P1 probe (EPUB3) (dsDNA)
DNA 1: GCCGAGGGCTTTTTGTAGACGCCAGGTACTTGCGCTTGTGGCGGCGAGCCGAGCG
DNA 2: CGCTCGGCTCGCCGCCACAAGCGCAAGTACCTGGCGTCTACAAAAAGCCCTCGGC
B2: KRN4-P4 probe (EP4) (dsDNA)
DNA 1: GCGTGTTGCCTACTTGCACTAGAGAGTACGTGAGGCAAACCAAATGTTTTCTAGCGAAC
DNA 2: GTTCGCTAGAAAACATTTGGTTTGCCTCACGTACTCTCTAGTGCAAGTAGGCAACACGC

Target: T1, UB2 (UNBRANCHED2), GST fusion
Experiment: EMSA; poly(dI-dC), 5 mM MgCl2; EMSA: 10 mM Tris pH 7.5, 50 mM KCl, 1 mM DTT, 5 mM MgCl2, 2.5% glycerol, poly(dI-dC), 0.05% NP-40; 20-40 ng protein, probe 10 fM (so in the source); room temperature
Conditions: protein: recombinant; tags: N-GST (pGEX-4T-1); label: 5'-biotin; blunt

Row | Binder | binding result
1 | B1 | binds
2 | B2 | binds
